The target of assay [1] is T1, VEGF (UniProt P15692-4 27-191, limits assumed, biotinylated).
T1 construct: ELISA antigen
Briefly: direct bind ELISA, N-term VD. (In an ELISA, binding on a coated surface is turned into a signal by an enzyme label.)

Assay [2] has as its target T2, EGFR (UniProt P00533 25-645, limits assumed, biotinylated).
T2 construct: ELISA antigen; construct not described
Briefly: direct bind ELISA, C-term VD.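 Also: ELISA with antibody or DVD-Ig preparations applied to target antigen-coated plates for 1 h at room temperature, TMB colour development, absorbance read at 450 nm.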

Assay [3] deals with T2, EGFR. Briefly: direct bind ELISA, N-term VD.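 Also: antibody or DVD-Ig preparations bound to immobilized target antigen on ELISA plates, 1 h at room temperature, TMB detection read as absorbance at 450 nm.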
Assay [4] has as its target RON (UniProt Q04912 25-571, biotinylated). Briefly: direct bind ELISA, C-term VD.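 Also: ELISA with antibody or DVD-Ig preparations applied to target antigen-coated plates for 1 h at room temperature, TMB colour development, absorbance read at 450 nm.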

Experimental findings from patent publication US20110263827A1 (AbbVie / Abbott, published 2011) are described below.

As a reminder, the EC50 is the concentration at which the effect is half-maximal. Higher therefore signals lower potency in that assay.

B1: DVD850 (bispecific antibody)
VH: EVQLVESGGGLVQPGGSLRLSCAASGFTISDYWIHWVRQAPGKGLEWVAGITPAGGYTYYADSVKGRFTISADTSKNTAYLQMNSLRAEDTAVYYCARFVFFLPYAMDYWGQGTLVTVSSASTKGPQVQLQESGPGLVKPSQTLSLTCTVSGYSISSDFAWNWIRQPPGKGLEWMGYISYSGNTRYQPSLKSRITISRDTSKNQFFLKLNSVTAADTATYYCVTAGRGFPYWGQGTLVTVSS
VL: DIQMTQSPSSLSASVGDRVTITCRASQDVSTAVAWYQQKPGKAPKLLIYSASFLYSGVPSRFSGSGSGTDFTLTISSLQPEDFATYYCQQSYTTPPTFGQGTKVEIKRTVAAPSVFIFPPDIQMTQSPSSMSVSVGDRVTITCHSSQDINSNIGWLQQKPGKSFKGLIYHGTNLDDGVPSRFSGSGSGTDYTLTISSLQPEDFATYYCVQYAQFPWTFGGGTKLEIKR
notes: DVD-Ig; HC S, LC L; variable parts only
As to B1, the values for the EC50 in assay [1] and in assay [2] were 10.2 nM and 71.8 nM, respectively.

B2: DVD760 (bispecific antibody)
VH: EVQLVESGGGLVQPGGSLRLSCAASGFTINASWIHWVRQAPGKGLEWVGAIYPYSGYTNYADSVKGRFTISADTSKNTAYLQMNSLRAEDTAVYYCARWGHSTSPWAMDYWGQGTLVTVSSASTKGPQVQLQESGPGLVKPSQTLSLTCTVSGYSISSDFAWNWIRQPPGKGLEWMGYISYSGNTRYQPSLKSRITISRDTSKNQFFLKLNSVTAADTATYYCVTAGRGFPYWGQGTLVTVSS
VL: DIQMTQSPSSLSASVGDRVTITCRASQVIRRSLAWYQQKPGKAPKLLIYAASNLASGVPSRFSGSGSGTDFTLTISSLQPEDFATYYCQQSNTSPLTFGQGTKVEIKRTVAAPDIQMTQSPSSMSVSVGDRVTITCHSSQDINSNIGWLQQKPGKSFKGLIYHGTNLDDGVPSRFSGSGSGTDYTLTISSLQPEDFATYYCVQYAQFPWTFGGGTKLEIKR
notes: DVD-Ig; HC S, LC S; variable parts only
As for B2, the results for the EC50 in assay [1] and in assay [2] were 0.77 nM and 328 nM, respectively.

B3: DVD767 (bispecific antibody)
VH: QVQLQESGPGLVKPSQTLSLTCTVSGYSISSDFAWNWIRQPPGKGLEWMGYISYSGNTRYQPSLKSRITISRDTSKNQFFLKLNSVTAADTATYYCVTAGRGFPYWGQGTLVTVSSASTKGPSVFPLAPEVQLVQSGGGLVKPGGSLRLSCAASGFTFSSYAMHWVRQAPGKGLEWVAVISYDGSNKYYADSVKGRFTISRDNSKNTLYLQMNSLRAEDTAVYYCARFSGWPNNYYYYGMDVWGQGTTVTVSS
VL: DIQMTQSPSSMSVSVGDRVTITCHSSQDINSNIGWLQQKPGKSFKGLIYHGTNLDDGVPSRFSGSGSGTDYTLTISSLQPEDFATYYCVQYAQFPWTFGGGTKLEIKRTVAAPSVFIFPPDVVMTQSPLSLPVTPGEPASISCRSSQSLLHSNGFNYVDWYLQKPGQSPHLLIYFGSYRASGVPDRFSGSGSGTDFTLKISRVEAEDVGVYYCMQALQTPPWTFGQGTKVEIRR
notes: DVD-Ig; HC L, LC L; variable parts only
For B3, the values for the EC50 in assay [3] and in assay [4] were 5.97 nM and 0.64 nM, respectively.

B4: DVD810 (bispecific antibody)
VH: EVQLVESGGGLVQPGGSLRLSCAASGYTFTNYGMNWVRQAPGKGLEWVGWINTYTGEPTYAADFKRRFTFSLDTSKSTAYLQMNSLRAEDTAVYYCAKYPHYYGSSHWYFDVWGQGTLVTVSSASTKGPSVFPLAPQVQLQESGPGLVKPSQTLSLTCTVSGYSISSDFAWNWIRQPPGKGLEWMGYISYSGNTRYQPSLKSRITISRDTSKNQFFLKLNSVTAADTATYYCVTAGRGFPYWGQGTLVTVSS
VL: DIQMTQSPSSLSASVGDRVTITCSASQDISNYLNWYQQKPGKAPKVLIYFTSSLHSGVPSRFSGSGSGTDFTLTISSLQPEDFATYYCQQYSTVPWTFGQGTKVEIKRTVAAPDIQMTQSPSSMSVSVGDRVTITCHSSQDINSNIGWLQQKPGKSFKGLIYHGTNLDDGVPSRFSGSGSGTDYTLTISSLQPEDFATYYCVQYAQFPWTFGGGTKLEIKR
notes: DVD-Ig; HC L, LC S; variable parts only
Regarding B4, the results for the EC50 in assay [1] and in assay [2] were 0.33 nM and 228 nM, respectively.

B5: DVD338 (bispecific antibody)
VH: EVQLVESGGGLVQPGGSLRLSCAASGYTFTNYGMNWVRQAPGKGLEWVGWINTYTGEPTYAADFKRRFTFSLDTSKSTAYLQMNSLRAEDTAVYYCAKYPHYYGSSHWYFDVWGQGTLVTVSSASTKGPQVQLQESGPGLVKPSQTLSLTCTVSGYSISSDFAWNWIRQPPGKGLEWMGYISYSGNTRYQPSLKSRITISRDTSKNQFFLKLNSVTAADTATYYCVTAGRGFPYWGQGTLVTVSS
VL: DIQMTQSPSSLSASVGDRVTITCSASQDISNYLNWYQQKPGKAPKVLIYFTSSLHSGVPSRFSGSGSGTDFTLTISSLQPEDFATYYCQQYSTVPWTFGQGTKVEIKRTVAAPDIQMTQSPSSMSVSVGDRVTITCHSSQDINSNIGWLQQKPGKSFKGLIYHGTNLDDGVPSRFSGSGSGTDYTLTISSLQPEDFATYYCVQYAQFPWTFGGGTKLEIKR
notes: as for B2
As for B5, the EC50 in assay [1] came out at 0.24 nM; in assay [2] it was 206 nM.

B6: DVD792 (bispecific antibody)
VH: EVQLVESGGGLVQPGGSLRLSCAASGFTINASWIHWVRQAPGKGLEWVGAIYPYSGYTNYADSVKGRFTISADTSKNTAYLQMNSLRAEDTAVYYCARWGHSTSPWAMDYWGQGTLVTVSSASTKGPSVFPLAPQVQLQESGPGLVKPSQTLSLTCTVSGYSISSDFAWNWIRQPPGKGLEWMGYISYSGNTRYQPSLKSRITISRDTSKNQFFLKLNSVTAADTATYYCVTAGRGFPYWGQGTLVTVSS
VL: DIQMTQSPSSLSASVGDRVTITCRASQVIRRSLAWYQQKPGKAPKLLIYAASNLASGVPSRFSGSGSGTDFTLTISSLQPEDFATYYCQQSNTSPLTFGQGTKVEIKRTVAAPSVFIFPPDIQMTQSPSSMSVSVGDRVTITCHSSQDINSNIGWLQQKPGKSFKGLIYHGTNLDDGVPSRFSGSGSGTDYTLTISSLQPEDFATYYCVQYAQFPWTFGGGTKLEIKR
notes: as for B3
Consider B6, for which the EC50 in assay [1] was found to be 0.82 nM; in assay [2], 48.6 nM.

B7: DVD852 (bispecific antibody)
VH: EVQLVESGGGLVQPGGSLRLSCAASGFTINASWIHWVRQAPGKGLEWVGAIYPYSGYTNYADSVKGRFTISADTSKNTAYLQMNSLRAEDTAVYYCARWGHSTSPWAMDYWGQGTLVTVSSASTKGPQVQLQESGPGLVKPSQTLSLTCTVSGYSISSDFAWNWIRQPPGKGLEWMGYISYSGNTRYQPSLKSRITISRDTSKNQFFLKLNSVTAADTATYYCVTAGRGFPYWGQGTLVTVSS
VL: DIQMTQSPSSLSASVGDRVTITCRASQVIRRSLAWYQQKPGKAPKLLIYAASNLASGVPSRFSGSGSGTDFTLTISSLQPEDFATYYCQQSNTSPLTFGQGTKVEIKRTVAAPSVFIFPPDIQMTQSPSSMSVSVGDRVTITCHSSQDINSNIGWLQQKPGKSFKGLIYHGTNLDDGVPSRFSGSGSGTDYTLTISSLQPEDFATYYCVQYAQFPWTFGGGTKLEIKR
notes: as for B1
Turning to B7, the EC50 in assay [1] was 0.78 nM; in assay [2], 68.1 nM.

B8: DVD822 (bispecific antibody)
VH: EVQLVESGGGLVQPGGSLRLSCAASGFTINASWIHWVRQAPGKGLEWVGAIYPYSGYTNYADSVKGRFTISADTSKNTAYLQMNSLRAEDTAVYYCARWGHSTSPWAMDYWGQGTLVTVSSASTKGPSVFPLAPQVQLQESGPGLVKPSQTLSLTCTVSGYSISSDFAWNWIRQPPGKGLEWMGYISYSGNTRYQPSLKSRITISRDTSKNQFFLKLNSVTAADTATYYCVTAGRGFPYWGQGTLVTVSS
VL: DIQMTQSPSSLSASVGDRVTITCRASQVIRRSLAWYQQKPGKAPKLLIYAASNLASGVPSRFSGSGSGTDFTLTISSLQPEDFATYYCQQSNTSPLTFGQGTKVEIKRTVAAPDIQMTQSPSSMSVSVGDRVTITCHSSQDINSNIGWLQQKPGKSFKGLIYHGTNLDDGVPSRFSGSGSGTDYTLTISSLQPEDFATYYCVQYAQFPWTFGGGTKLEIKR
notes: as for B4
B8: the EC50 in assay [1] was 0.72 nM; in assay [2], 90 nM.

B9: DVD840 (bispecific antibody)
VH: EVQLVESGGGLVQPGGSLRLSCAASGYTFTNYGMNWVRQAPGKGLEWVGWINTYTGEPTYAADFKRRFTFSLDTSKSTAYLQMNSLRAEDTAVYYCAKYPHYYGSSHWYFDVWGQGTLVTVSSASTKGPQVQLQESGPGLVKPSQTLSLTCTVSGYSISSDFAWNWIRQPPGKGLEWMGYISYSGNTRYQPSLKSRITISRDTSKNQFFLKLNSVTAADTATYYCVTAGRGFPYWGQGTLVTVSS
VL: DIQMTQSPSSLSASVGDRVTITCSASQDISNYLNWYQQKPGKAPKVLIYFTSSLHSGVPSRFSGSGSGTDFTLTISSLQPEDFATYYCQQYSTVPWTFGQGTKVEIKRTVAAPSVFIFPPDIQMTQSPSSMSVSVGDRVTITCHSSQDINSNIGWLQQKPGKSFKGLIYHGTNLDDGVPSRFSGSGSGTDYTLTISSLQPEDFATYYCVQYAQFPWTFGGGTKLEIKR
notes: as for B1
Take B9: the figures for the EC50 in assay [1] and in assay [2] were 0.18 nM and 69.8 nM, respectively.

B10: DVD820 (bispecific antibody)
VH: EVQLVESGGGLVQPGGSLRLSCAASGFTISDYWIHWVRQAPGKGLEWVAGITPAGGYTYYADSVKGRFTISADTSKNTAYLQMNSLRAEDTAVYYCARFVFFLPYAMDYWGQGTLVTVSSASTKGPSVFPLAPQVQLQESGPGLVKPSQTLSLTCTVSGYSISSDFAWNWIRQPPGKGLEWMGYISYSGNTRYQPSLKSRITISRDTSKNQFFLKLNSVTAADTATYYCVTAGRGFPYWGQGTLVTVSS
VL: DIQMTQSPSSLSASVGDRVTITCRASQDVSTAVAWYQQKPGKAPKLLIYSASFLYSGVPSRFSGSGSGTDFTLTISSLQPEDFATYYCQQSYTTPPTFGQGTKVEIKRTVAAPDIQMTQSPSSMSVSVGDRVTITCHSSQDINSNIGWLQQKPGKSFKGLIYHGTNLDDGVPSRFSGSGSGTDYTLTISSLQPEDFATYYCVQYAQFPWTFGGGTKLEIKR
notes: as for B4
Regarding B10, the results for the EC50 in assay [1] and in assay [2] were 4.08 nM and 107 nM, respectively.

B11: DVD758 (bispecific antibody)
VH: EVQLVESGGGLVQPGGSLRLSCAASGFTISDYWIHWVRQAPGKGLEWVAGITPAGGYTYYADSVKGRFTISADTSKNTAYLQMNSLRAEDTAVYYCARFVFFLPYAMDYWGQGTLVTVSSASTKGPQVQLQESGPGLVKPSQTLSLTCTVSGYSISSDFAWNWIRQPPGKGLEWMGYISYSGNTRYQPSLKSRITISRDTSKNQFFLKLNSVTAADTATYYCVTAGRGFPYWGQGTLVTVSS
VL: DIQMTQSPSSLSASVGDRVTITCRASQDVSTAVAWYQQKPGKAPKLLIYSASFLYSGVPSRFSGSGSGTDFTLTISSLQPEDFATYYCQQSYTTPPTFGQGTKVEIKRTVAAPDIQMTQSPSSMSVSVGDRVTITCHSSQDINSNIGWLQQKPGKSFKGLIYHGTNLDDGVPSRFSGSGSGTDYTLTISSLQPEDFATYYCVQYAQFPWTFGGGTKLEIKR
notes: as for B2
On to B11, for which the EC50 in assay [1] turned out to be 5.37 nM; in assay [2], 562 nM.
